From paper PMC7214622, “Function of P2X4 Receptors Is Directly Modulated by a 1:1 Stoichiometric Interaction With 5-HT3A Receptors” (Frontiers in Cellular Neuroscience, 2020)

Target: T1, rat P2X4 receptor with a C-terminal hemagglutinin (HA) tag (rat, UniProt P51577 1-388)
T1 construct: P2X4 subunit, rat (Rattus norvegicus), GenBank U47031.1; UniProt P51577 is printed for the rat P2X4 subunit in the modelling methods; The subunit ran at 70 kDa on SDS-PAGE, which the authors put down to glycosylation; also called P2X4 subunit; source: tsA201 cells, transfected (pcDNA3.1, PEI); Triton X-100 solubilised MEMBRANE fraction; eluted from anti-HA agarose beads with HA peptide; not …
T1 sequence (looked up): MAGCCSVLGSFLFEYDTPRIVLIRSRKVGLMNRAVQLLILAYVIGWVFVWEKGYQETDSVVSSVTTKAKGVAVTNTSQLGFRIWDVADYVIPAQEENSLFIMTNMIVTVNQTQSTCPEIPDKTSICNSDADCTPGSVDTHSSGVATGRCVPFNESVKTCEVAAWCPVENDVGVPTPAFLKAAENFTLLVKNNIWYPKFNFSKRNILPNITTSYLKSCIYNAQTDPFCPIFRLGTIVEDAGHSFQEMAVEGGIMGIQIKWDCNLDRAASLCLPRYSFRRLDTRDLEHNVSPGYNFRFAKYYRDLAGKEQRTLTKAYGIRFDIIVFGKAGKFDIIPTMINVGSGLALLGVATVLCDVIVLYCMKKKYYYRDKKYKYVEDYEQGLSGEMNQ
Experiment: atomic force microscopy imaging; complexes co-purified by the HA tag from co-transfected tsA201 cells, adsorbed onto mica for 15 min, dried and imaged in intermittent contact mode; histograms of molecular volumes fitted by a double Gaussian; without ATP, or with 100 μM ATP for 30 min in solution before adsorption
Details: partners not purified

B1: human 5-HT3A receptor with a C-terminal MYC/His-6 epitope tag (receptor, UniProt P46098 24-478, looked up)
chain: RRSRNTTRPALLRLSDYLLTNYRKGVRPVRDWRKPTTVSIDVIVYAILNVDEKNQVLTTYIWYRQYWTDEFLQWNPEDFDNITKLSIPTDSIWVPDILINEFVDVGKSPNIPYVYIRHQGEVQNYKPLQVVTACSLDIYNFPFDVQNCSLTFTSWLHTIQDINISLWRLPEKVKSDRSVFMNQGEWELLGVLPYFREFSMESSNYYAEMKFYVVIRRRPLFYVVSLLLPSIFLMVMDIVGFYLPPNSGERVSFKITLLLGYSVFLIIVSDTLPATAIGTPLIGVYFVVCMALLVISLAETIFIVRLVHKQDLQQPVPAWLRHLVLERIAWLLCLREQSTSQRPPATSQATKTDDCSAMGNHCSHMGGPQDFEKSPRDRCSPPPPPREASLAVCGLLQELSSIRQFLEKRDEIREVARDWLRVGSVLDKLLFHIYLLAVLAYSITLVMLWSIWQYA
notes: 5-HT3A subunit, human (Homo sapiens), GenBank AK304630.1; UniProt P46098 is printed for the human 5-HT3A subunit in the modelling methods; The subunit ran at 55 kDa on SDS-PAGE; also called 5-HT3A subunit; 5-HT3A-MYC/His6; source: tsA201 cells, transfected (pcDNA3.1, PEI); Triton X-100 solubilised MEMBRANE fraction; eluted from HisPur Ni-NTA agarose beads with 200 mM imidazole; not shown: MYC, …
stoichiometry N: 1
